This assay addresses human IL-28 receptor on transfected 293 HEK cells (IL-28 receptor alpha subunit with endogenous CRF2-4) (human). The experiment in a line: cell-based or functional assay.

Sequence of human IL-28 receptor on transfected 293 HEK cells (IL-28 receptor alpha subunit with endogenous CRF2-4) (human) (Q8IU57 21-520): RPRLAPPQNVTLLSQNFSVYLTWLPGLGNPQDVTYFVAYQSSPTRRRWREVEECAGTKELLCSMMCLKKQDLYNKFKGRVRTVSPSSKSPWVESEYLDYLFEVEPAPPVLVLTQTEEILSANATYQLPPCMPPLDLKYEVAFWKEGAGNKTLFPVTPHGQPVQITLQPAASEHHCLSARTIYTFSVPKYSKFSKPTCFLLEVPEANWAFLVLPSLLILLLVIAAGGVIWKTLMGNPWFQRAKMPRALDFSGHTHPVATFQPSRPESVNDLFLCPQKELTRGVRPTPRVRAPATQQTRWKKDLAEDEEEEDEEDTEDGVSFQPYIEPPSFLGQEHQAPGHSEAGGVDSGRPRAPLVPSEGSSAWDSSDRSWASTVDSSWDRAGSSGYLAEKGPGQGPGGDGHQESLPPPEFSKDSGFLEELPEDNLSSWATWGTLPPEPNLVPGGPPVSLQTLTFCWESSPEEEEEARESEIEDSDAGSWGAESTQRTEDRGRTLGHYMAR

Regarding “huIL10 (from UniProt P22301 19-178) (ligand)”, the ISRE Signaling of Transfected 293 Cells Following Class II Cytokine Stimulation (Fold Induction), ISRE-Luc./IL-28R, HuIL10 100 ng/ml (fold induction) turned out to be 0.5. As for “zcyto10 (from UniProt Q9NYY1 25-176) (ligand)”, the ISRE Signaling of Transfected 293 Cells Following Class II Cytokine Stimulation (Fold Induction), ISRE-Luc./IL-28R, Zcyto10 125 ng/ml (fold induction) stood at 1.

The values are drawn from US7351689.
